Results on 2 molecules are retold here after publication PMC12866682 (2025).

In assay [1] the target is T96K TREM2 protein (UniProt Q9NZC2). The experiment in a line: solid-phase binding (SPB) assay; WT, R47H or T96K TREM2 immobilised, MPO in solution (n=5); method not described in the text shown.
Assay [2] deals with T1, Purified human MPO (human, UniProt P05164 49-745).
T1 chain: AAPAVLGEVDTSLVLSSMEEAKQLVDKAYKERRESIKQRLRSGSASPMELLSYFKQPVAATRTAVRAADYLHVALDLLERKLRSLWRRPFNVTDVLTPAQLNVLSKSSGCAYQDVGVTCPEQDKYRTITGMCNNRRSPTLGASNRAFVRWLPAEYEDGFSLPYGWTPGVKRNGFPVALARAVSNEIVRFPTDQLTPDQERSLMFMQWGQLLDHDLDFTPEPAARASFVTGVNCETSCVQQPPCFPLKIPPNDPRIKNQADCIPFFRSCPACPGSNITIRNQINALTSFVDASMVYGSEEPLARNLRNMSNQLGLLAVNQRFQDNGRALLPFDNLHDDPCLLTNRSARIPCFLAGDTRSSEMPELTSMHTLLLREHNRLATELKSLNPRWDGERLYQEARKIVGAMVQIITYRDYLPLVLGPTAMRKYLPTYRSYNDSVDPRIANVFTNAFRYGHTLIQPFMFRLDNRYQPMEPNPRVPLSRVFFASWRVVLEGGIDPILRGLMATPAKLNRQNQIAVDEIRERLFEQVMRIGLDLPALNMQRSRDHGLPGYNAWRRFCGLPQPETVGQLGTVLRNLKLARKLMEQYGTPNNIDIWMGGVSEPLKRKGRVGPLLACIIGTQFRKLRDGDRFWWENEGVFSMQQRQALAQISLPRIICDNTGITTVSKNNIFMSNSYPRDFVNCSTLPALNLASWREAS
The experiment in a line: SPR. (In SPR one partner is held on a chip, and binding of the other changes the refractive index at the surface.)

For “Purified human MPO (from UniProt P05164 49-745) (ligand)”, the fold affinity over the WT or R47H TREM2 protein in assay [1] was found to be 1.3 fold.

B1: Purified human TREM2 protein (receptor)
chain: HNTTVFQGVAGQSLQVSCPYDSMKHWGRRKAWCRQLGEKGPCQRVVSTHNLWLLSFLRRWNGSTAITDDTLGGTLTITLRNLQPHDAGLYQCQSLHGSEADTLRKVLVEVLADPLDHRDAGDLWFPGESESFEDAHVEHSISRSLLEGEIPFPPTSILLLLACIFLIKILAASALWAAAWHGQKPGTHPPSELDCGHDPGYQLQTLPGLRDT
Turning to B1, the Kd – broadly, the free concentration of one partner at which half of the binding sites on the other are occupied at equilibrium, for simple one-to-one binding – in assay [2] was determined as 551 nM.
